# Reference: the supplement of paper PMC9112550, “Optimization of the antimicrobial peptide Bac7 by deep mutational scanning” (BMC Biology, 2022)
# Test system: Escherichia coli TOP10
# Test: shrunken log2 fold change of peptide-encoding DNA abundance (4.5 h post-induction vs induction); higher = less antimicrobial activity (less host growth inhibition)
# Conditions: time post-induction: 4.5 h; library: site-saturation at positions 5, 18, 19, 20
# 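Note: peptides expressed intracellularly from a pBAD plasmid library in pooled LB shake-flask culture, induced with 0.3% L-arabinose, DNA abundance read by NGS, three biological replicates, DESeq2 with apeglm shrinkage.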
row,Sequence,shrunken log2 fold change
1,RRIRMRPPRLPRPRPRPWSCPRP,-0.0965
2,RRIRMRPPRLPRPRPRPWSIPRP,-0.0237
3,RRIRMRPPRLPRPRPRPWTEPRP,0.0475
4,RRIRMRPPRLPRPRPRPWVKPRP,-0.00556
5,RRIRMRPPRLPRPRPRPWWAPRP,-0.0423
6,RRIRMRPPRLPRPRPRPWWQPRP,0.183
7,RRIRMRPPRLPRPRPRPWYRPRP,-0.277
8,RRIRMRPPRLPRPRPRPWYTPRP,-0.012
9,RRIRMRPPRLPRPRPRPYAIPRP,-0.0168
10,RRIRMRPPRLPRPRPRPYASPRP,-0.0515
11,RRIRMRPPRLPRPRPRPYCAPRP,-0.515
12,RRIRMRPPRLPRPRPRPYCCPRP,-0.348
13,RRIRMRPPRLPRPRPRPYDDPRP,-0.00329
14,RRIRMRPPRLPRPRPRPYEHPRP,-0.291
15,RRIRMRPPRLPRPRPRPYEWPRP,-0.0304
16,RRIRMRPPRLPRPRPRPYFHPRP,-0.614
17,RRIRMRPPRLPRPRPRPYGFPRP,-0.00952
18,RRIRMRPPRLPRPRPRPYGHPRP,-0.0791
19,RRIRMRPPRLPRPRPRPYGTPRP,-0.411
20,RRIRMRPPRLPRPRPRPYHKPRP,-0.0503
21,RRIRMRPPRLPRPRPRPYHMPRP,-0.000687
22,RRIRMRPPRLPRPRPRPYIHPRP,-0.262
23,RRIRMRPPRLPRPRPRPYKEPRP,0.0136
24,RRIRMRPPRLPRPRPRPYLHPRP,-0.437
25,RRIRMRPPRLPRPRPRPYLLPRP,-0.204

row,Sequence,shrunken log2 fold change
1,RRIRMRPPRLPRPRPRPYMHPRP,-0.0641
2,RRIRMRPPRLPRPRPRPYNGPRP,-0.289
3,RRIRMRPPRLPRPRPRPYNSPRP,-0.22
4,RRIRMRPPRLPRPRPRPYNTPRP,-0.862
5,RRIRMRPPRLPRPRPRPYNWPRP,-0.337
6,RRIRMRPPRLPRPRPRPYPCPRP,0.0288
7,RRIRMRPPRLPRPRPRPYPMPRP,-0.126
8,RRIRMRPPRLPRPRPRPYPNPRP,-0.021
9,RRIRMRPPRLPRPRPRPYQLPRP,0.0393
10,RRIRMRPPRLPRPRPRPYREPRP,-0.0131
11,RRIRMRPPRLPRPRPRPYRVPRP,0.111
12,RRIRMRPPRLPRPRPRPYSCPRP,-0.706
13,RRIRMRPPRLPRPRPRPYWIPRP,-0.157
14,RRIRMRPPRLPRPRPRPYYEPRP,-0.28
15,RRIRNRPPRLPRPRPRPAACPRP,-0.0409
16,RRIRNRPPRLPRPRPRPAADPRP,0.342
17,RRIRNRPPRLPRPRPRPAAGPRP,0.698
18,RRIRNRPPRLPRPRPRPAALPRP,0.341
19,RRIRNRPPRLPRPRPRPACEPRP,0.172
20,RRIRNRPPRLPRPRPRPACFPRP,0.0188
21,RRIRNRPPRLPRPRPRPACKPRP,0.169
22,RRIRNRPPRLPRPRPRPACVPRP,0.0235
23,RRIRNRPPRLPRPRPRPADPPRP,-0.0809
24,RRIRNRPPRLPRPRPRPADSPRP,-0.0169
25,RRIRNRPPRLPRPRPRPAEAPRP,0.057

row,Sequence,shrunken log2 fold change
1,RRIRNRPPRLPRPRPRPAEIPRP,-0.107
2,RRIRNRPPRLPRPRPRPAELPRP,-0.0198
3,RRIRNRPPRLPRPRPRPAEPPRP,-0.00965
4,RRIRNRPPRLPRPRPRPAETPRP,-0.119
5,RRIRNRPPRLPRPRPRPAEYPRP,0.0714
6,RRIRNRPPRLPRPRPRPAFCPRP,0.0699
7,RRIRNRPPRLPRPRPRPAHAPRP,0.116
8,RRIRNRPPRLPRPRPRPAHEPRP,-0.0423
9,RRIRNRPPRLPRPRPRPAIQPRP,-0.0231
10,RRIRNRPPRLPRPRPRPAKGPRP,-0.051
11,RRIRNRPPRLPRPRPRPALPPRP,0.248
12,RRIRNRPPRLPRPRPRPALQPRP,0.234
13,RRIRNRPPRLPRPRPRPAMPPRP,0.236
14,RRIRNRPPRLPRPRPRPAMTPRP,0.157
15,RRIRNRPPRLPRPRPRPAPGPRP,0.164
16,RRIRNRPPRLPRPRPRPARDPRP,0.27
17,RRIRNRPPRLPRPRPRPASHPRP,0.0783
18,RRIRNRPPRLPRPRPRPASYPRP,-0.148
19,RRIRNRPPRLPRPRPRPAWHPRP,0.259
20,RRIRNRPPRLPRPRPRPCAMPRP,-0.132
21,RRIRNRPPRLPRPRPRPCAVPRP,-0.273
22,RRIRNRPPRLPRPRPRPCFHPRP,-0.503
23,RRIRNRPPRLPRPRPRPCFLPRP,-0.389
24,RRIRNRPPRLPRPRPRPCFNPRP,0.0695
25,RRIRNRPPRLPRPRPRPCHPPRP,-0.0698

row,Sequence,shrunken log2 fold change
1,RRIRNRPPRLPRPRPRPCIKPRP,-0.207
2,RRIRNRPPRLPRPRPRPCKNPRP,-0.0376
3,RRIRNRPPRLPRPRPRPCKSPRP,-0.0291
4,RRIRNRPPRLPRPRPRPCKTPRP,-0.129
5,RRIRNRPPRLPRPRPRPCLHPRP,-0.888
6,RRIRNRPPRLPRPRPRPCMDPRP,-0.129
7,RRIRNRPPRLPRPRPRPCNMPRP,-0.0735
8,RRIRNRPPRLPRPRPRPCNSPRP,-0.0484
9,RRIRNRPPRLPRPRPRPCNTPRP,-0.442
10,RRIRNRPPRLPRPRPRPCQWPRP,0.0401
11,RRIRNRPPRLPRPRPRPCRDPRP,-0.0123
12,RRIRNRPPRLPRPRPRPCREPRP,-0.109
13,RRIRNRPPRLPRPRPRPCSCPRP,-0.0018
14,RRIRNRPPRLPRPRPRPCSMPRP,-0.132
15,RRIRNRPPRLPRPRPRPCSYPRP,-0.212
16,RRIRNRPPRLPRPRPRPCTEPRP,-0.347
17,RRIRNRPPRLPRPRPRPCTNPRP,0.00408
18,RRIRNRPPRLPRPRPRPCTRPRP,-0.184
19,RRIRNRPPRLPRPRPRPCVYPRP,-0.215
20,RRIRNRPPRLPRPRPRPCYAPRP,-0.424
21,RRIRNRPPRLPRPRPRPCYIPRP,-0.33
22,RRIRNRPPRLPRPRPRPCYKPRP,-0.173
23,RRIRNRPPRLPRPRPRPCYSPRP,-0.596
24,RRIRNRPPRLPRPRPRPDAGPRP,0.391
25,RRIRNRPPRLPRPRPRPDCNPRP,-0.0899

row,Sequence,shrunken log2 fold change
1,RRIRNRPPRLPRPRPRPDDDPRP,-0.153
2,RRIRNRPPRLPRPRPRPDDMPRP,-0.107
3,RRIRNRPPRLPRPRPRPDFDPRP,-0.0771
4,RRIRNRPPRLPRPRPRPDFPPRP,-0.0345
5,RRIRNRPPRLPRPRPRPDFRPRP,-0.0186
6,RRIRNRPPRLPRPRPRPDGDPRP,-0.194
7,RRIRNRPPRLPRPRPRPDGMPRP,0.0319
8,RRIRNRPPRLPRPRPRPDGWPRP,0.235
9,RRIRNRPPRLPRPRPRPDHEPRP,-0.039
10,RRIRNRPPRLPRPRPRPDHHPRP,0.109
11,RRIRNRPPRLPRPRPRPDHKPRP,-0.398
12,RRIRNRPPRLPRPRPRPDHQPRP,0.113
13,RRIRNRPPRLPRPRPRPDICPRP,0.0866
14,RRIRNRPPRLPRPRPRPDIHPRP,-0.0173
15,RRIRNRPPRLPRPRPRPDISPRP,0.000389
16,RRIRNRPPRLPRPRPRPDIVPRP,-0.0101
17,RRIRNRPPRLPRPRPRPDKTPRP,-0.0594
18,RRIRNRPPRLPRPRPRPDLWPRP,0.551
19,RRIRNRPPRLPRPRPRPDMNPRP,-0.0522
20,RRIRNRPPRLPRPRPRPDNAPRP,-0.0737
21,RRIRNRPPRLPRPRPRPDNRPRP,-0.0135
22,RRIRNRPPRLPRPRPRPDSGPRP,-0.166
23,RRIRNRPPRLPRPRPRPDTAPRP,-0.235
24,RRIRNRPPRLPRPRPRPDTEPRP,-0.0108
25,RRIRNRPPRLPRPRPRPDTMPRP,-1.25

row,Sequence,shrunken log2 fold change
1,RRIRNRPPRLPRPRPRPDTWPRP,-0.213
2,RRIRNRPPRLPRPRPRPDTYPRP,-0.0291
3,RRIRNRPPRLPRPRPRPDVAPRP,0.285
4,RRIRNRPPRLPRPRPRPDVCPRP,-0.00695
5,RRIRNRPPRLPRPRPRPDVIPRP,-0.135
6,RRIRNRPPRLPRPRPRPDVLPRP,-0.0481
7,RRIRNRPPRLPRPRPRPDVWPRP,-0.0172
8,RRIRNRPPRLPRPRPRPDWDPRP,-0.108
9,RRIRNRPPRLPRPRPRPDWQPRP,0.184
10,RRIRNRPPRLPRPRPRPDWVPRP,0.134
11,RRIRNRPPRLPRPRPRPDYCPRP,-0.00677
12,RRIRNRPPRLPRPRPRPDYEPRP,-0.00884
13,RRIRNRPPRLPRPRPRPEACPRP,0.0475
14,RRIRNRPPRLPRPRPRPEASPRP,0.0343
15,RRIRNRPPRLPRPRPRPEFGPRP,-0.106
16,RRIRNRPPRLPRPRPRPEINPRP,0.0636
17,RRIRNRPPRLPRPRPRPEKSPRP,0.31
18,RRIRNRPPRLPRPRPRPEMWPRP,-0.0348
19,RRIRNRPPRLPRPRPRPENDPRP,0.0164
20,RRIRNRPPRLPRPRPRPENSPRP,-0.00522
21,RRIRNRPPRLPRPRPRPEPSPRP,0.145
22,RRIRNRPPRLPRPRPRPEPWPRP,0.0625
23,RRIRNRPPRLPRPRPRPEQMPRP,-0.0261
24,RRIRNRPPRLPRPRPRPERFPRP,0.128
25,RRIRNRPPRLPRPRPRPERRPRP,0.237
